Patent US20260234276A1

What was measured:
human CCR8 (human) [1] = target: human CCR8 (human) (UniProt P51685); assay: flow cytometry on lymphocytes from ascitic ovarian cancer, 1 µg mAb
human CCR8 (human) [2] = target: human CCR8 (human) (UniProt P51685); assay: flow cytometry on lymphocytes from ascitic ovarian cancer, 0.1 µg mAb
human CCR8 (human) [3] = target: human CCR8 (human) (UniProt P51685); assay: flow cytometry on lymphocytes from ascitic ovarian cancer, 0.5 µg mAb
human CCR8 (human) [4] = target: human CCR8 (human) (UniProt P51685); assay: flow cytometry, hCCR8 transfected CHOK1 cells

Substance | Positive cells (human CCR8 (human) [1]) | Positive cells (human CCR8 (human) [2]) | Positive cells (human CCR8 (human) [3]) | % positive cells (human CCR8 (human) [4]) | MFI fold change to isotype ctrl (human CCR8 (human) [4])
Isotype ctrl (antibody) | 5.06% | 2.94% | 3.81% |  | 
L263G8 (antibody) | 8.64% | 9.5% |  | 86.5% | 19.8 fold
